Usually EC50 (read off the curve) stands for the concentration giving half of the maximal effect. A high value points to a need for much substance.

Positions count from the first letter of the chain named.

Experiment [1] deals with T1, FcγRIIA with the high affinity 131 H/H polymorphism on Jurkat NFAT-luciferase reporter cells (UniProt P12318 34-317, limits assumed).
T1 sequence (looked up): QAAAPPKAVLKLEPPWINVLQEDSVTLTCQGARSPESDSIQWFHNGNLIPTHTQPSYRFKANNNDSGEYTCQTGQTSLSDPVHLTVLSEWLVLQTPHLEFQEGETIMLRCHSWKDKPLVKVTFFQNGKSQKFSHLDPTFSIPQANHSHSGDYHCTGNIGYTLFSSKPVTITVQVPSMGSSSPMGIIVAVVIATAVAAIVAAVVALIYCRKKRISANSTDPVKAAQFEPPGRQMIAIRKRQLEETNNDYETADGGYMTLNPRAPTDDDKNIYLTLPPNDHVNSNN
Description: cell-based or functional assay.

The target in experiment [2] is T2, P93A.
T2 construct: also called human OX40 alanine mutant P93A on 1624-5 cells
T2 receptor chain: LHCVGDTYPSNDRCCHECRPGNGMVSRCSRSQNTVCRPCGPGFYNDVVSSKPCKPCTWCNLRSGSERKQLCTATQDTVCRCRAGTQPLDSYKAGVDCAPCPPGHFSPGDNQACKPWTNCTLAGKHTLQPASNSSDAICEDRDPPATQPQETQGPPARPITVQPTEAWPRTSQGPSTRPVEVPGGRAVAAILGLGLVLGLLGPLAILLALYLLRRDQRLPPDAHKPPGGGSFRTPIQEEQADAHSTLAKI
Description: flow cytometry on 1624-5 cells expressing the human OX40 alanine mutant; pab1928 at 1.1 and 0.4 µg/ml. As to the method:
(§1) This anti-OX40 antibody non-reactive cell population was subjected to a final, single-cell sorting step. […] The polyclonal anti-OX40 antibody (AF3388, R&D systems) conjugated with APC was diluted at 1:2000. Fc receptor block (1:200; BD Cat no. 553142) was added, and the samples were incubated for 20 minutes at 4° C. […] The cells were then washed and acquired using a flow cytometer (BD Biosciences).
A general note: A flow cytometer gives signals particle by particle.

Experiment [3] addresses T3, P99A.
T3 construct: also called human OX40 alanine mutant P99A on 1624-5 cells
T3 receptor chain: T2 receptor chain with A93P, P99A
Described as above. As to the method:
as §1

In experiment [4] the target is T4, N60A.
T4 construct: also called human OX40 alanine mutant N60A on 1624-5 cells
T4 receptor chain: T2 receptor chain with N60A, A93P
The description is as above. How it is done:
as §1

The target of experiment [5] is T5, R80A.
T5 construct: also called human OX40 alanine mutant R80A on 1624-5 cells
T5 receptor chain: T2 receptor chain with R80A, A93P
Described as above. As to the method:
as §1

For experiment [6], the target named is T6, R62A.
T6 construct: also called human OX40 alanine mutant R62A on 1624-5 cells
T6 receptor chain: T2 receptor chain with R62A, A93P
Described as above. As to the method:
as §1

In experiment [7] the target is T7, L88A.
T7 construct: also called human OX40 alanine mutant L88A on 1624-5 cells
T7 receptor chain: T2 receptor chain with L88A, A93P
Described as above. How it is done:
as §1

Experiment [8] has as its target T8, P115A.
T8 construct: also called human OX40 alanine mutant P115A on 1624-5 cells
T8 receptor chain: T2 receptor chain with A93P, P115A
The description is as above. As to the method:
as §1

The target in experiment [9] is T9, W58A.
T9 construct: also called human OX40 alanine mutant W58A on 1624-5 cells
T9 receptor chain: T2 receptor chain with W58A, A93P
Described as above. As to the method: as §1

B1: pab2193-1 (antibody, human IgG2, kappa)
heavy: EVQLVESGGGLVQPGGSLKLSCAASGFTFSGSAMHWVRQASGKGLEWVGRIRSKANSYATAYAASVKGRFTISRDDSKNTAYLQMNSLKTEDTAVYYCTSGIYDSSGYDYWGQGTLVTVSSASTKGPSVFPLAPCSRSTSESTAALGCLVKDYFPEPVTVSWNSGALTSGVHTFPAVLQSSGLYSLSSVVTVPSSNFGTQTYTCNVDHKPSNTKVDKTVERKCCVECPPCPAPPVAGPSVFLFPPKPKDTLMISRTPEVTCVVVDVSHEDPEVQFNWYVDGVEVHNAKTKPREEQFNSTFRVVSVLTVVHQDWLNGKEYKCKVSNKGLPAPIEKTISKTKGQPREPQVYTLPPSREEMTKNQVSLTCLVKGFYPSDIAVEWESNGQPENNYKTTPPMLDSDGSFFLYSKLTVDKSRWQQGNVFSCSVMHEALHNHYTQKSLSLSPG
light: not shown
Take B1: the “EC50 (read off the curve)” value in [1] was roughly 1 nM.

B2: pab1928 (antibody, human IgG1, V domains shown)
VH: QVQLVQSGSELKKPGASVKVSCKASGYTFTDYSMHWVRQAPGQGLKWMGWINTETGEPTYADDFKGRFVFSLDTSVSTAYLQISSLKAEDTAVYYCANPYYDYVSYYAMDYWGQGTTVTVSS
VL: DIQMTQSPSSLSASVGDRVTITCKASQDVSTAVAWYQQKPGKAPKLLIYSASYLYTGVPSRFSGSGSGTDFTFTISSLQPEDIATYYCQQHYSTPRTFGQGTKLEIKR
notes: also called made from the variable regions of Hu106-122 (US 2013/0280275)
For the molecule B2, the binding result in experiment [2], in [3], in experiment [4], in experiment [5], in [6] and in experiment [7] was “binds” throughout. Also, the binding result in experiment [8] is “binds”; in [9], “no binding (tested: 1.1 µg/ml)”.

Values taken from patent US20160347847A1 (AGENUS, published 2016).
